The target of test [1] is PX domain of SNX5 (SNX5^PX) (UniProt Q9Y5X3). In words: ITC; Fig 1D: approximately 2–3 mM of peptides titrated into SNX5^PX (300 μM); 100 mM HEPES pH 7.5, 300 mM NaCl, 2 mM βME, 25°C; one set of sites model; single values of triplicates.
For test [2], the target named is PX domain of SNX32 (SNX32^PX). In words: ITC; S1B Fig: approximately 2–3 mM of CI-MPR (aa21–48) peptide titrated into approximately 100–300 μM of SNX5^PX, SNX6^PX or SNX32^PX; 100 mM HEPES pH 7.5, 300 mM NaCl, 2 mM βME, 25°C; one set of sites model; single values of triplicates.
The target in test [3] is PX domain of SNX6 (SNX6^PX) (UniProt Q9UNH7). The test is described as above.
PX domain of SNX6 (SNX6^PX), sequence (Q9UNH7 26-173): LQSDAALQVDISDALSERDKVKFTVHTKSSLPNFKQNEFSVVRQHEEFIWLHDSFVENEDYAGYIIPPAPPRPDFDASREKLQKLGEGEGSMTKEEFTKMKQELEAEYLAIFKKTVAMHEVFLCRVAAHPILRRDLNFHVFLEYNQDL
For test [4], the target named is PX domain of SNX5 (SNX5^PX) (UniProt Q9Y5X3). The test is described as above.
The target is the same in test [5]. As to the kind of experiment: ITC; S4C Fig: approximately 0.5–1 mM of CI-MPR (aa21–48) WT or loop-deletion peptides titrated into SNX5^PX (50 μM); 100 mM HEPES pH 7.5, 300 mM NaCl, 2 mM βME, 25°C; one set of sites model; single values of triplicates.
Test [6] shares this target. In words: ITC; Fig 2B: CI-MPR (aa21–48) WT or alanine mutants titrated into SNX5^PX; 100 mM Hepes pH 7.5, 300 mM NaCl, 2 mM βME, 25°C; single values of triplicates.
For test [7], the target named is SNX3-retromer complex (Retromer + SNX3) (UniProt Q96QK1). As to the kind of experiment: ITC; approximately 2–3 mM peptide titrated into SNX5^PX (300 μM) or the SNX3-retromer complex (10 μM Retromer + 100 μM SNX3); 100 mM HEPES pH 7.5, 300 mM NaCl, 2 mM βME, 25°C; one set of sites model (Fig 1D, 1E, 2B).
The target of test [8] is SNX5^PX (UniProt Q9Y5X3). The test is described as above.
SNX5^PX, sequence (Q9Y5X3 20-180): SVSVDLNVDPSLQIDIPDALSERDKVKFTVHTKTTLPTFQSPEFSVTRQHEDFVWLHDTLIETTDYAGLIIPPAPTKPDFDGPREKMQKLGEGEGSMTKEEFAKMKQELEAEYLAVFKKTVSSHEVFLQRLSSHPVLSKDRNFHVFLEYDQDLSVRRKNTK
The target in test [9] is SNX5^PX (UniProt Q9Y5X3). As to the kind of experiment: ITC; approximately 2–3 mM CI-MPR (aa21–48) titrated into approximately 100–300 μM SNX5^PX, SNX6^PX or SNX32^PX; 100 mM HEPES pH 7.5, 300 mM NaCl, 2 mM βME, 25°C (S1B Fig).
For a further test, the target named is SNX6^PX (UniProt Q9UNH7). The test is described as above.
The target of a further test is SNX32^PX. The description is as above.
In test [10] the target is SNX5^PX (UniProt Q9Y5X3). In words: ITC; loop length: approximately 0.5–1 mM peptide titrated into SNX5^PX (50 μM); 100 mM HEPES pH 7.5, 300 mM NaCl, 2 mM βME, 25°C (S4C Fig).

pKd: −log10 of the molar value. Several values for one entry are separate records, joined by “and”; a condition that tells them apart may be missing. Equal entries are not always repeated. A value given as a limit tells only on which side of the number the result lay.

PX domain of SNX5 (SNX5^PX), sequence (Q9Y5X3 25-172): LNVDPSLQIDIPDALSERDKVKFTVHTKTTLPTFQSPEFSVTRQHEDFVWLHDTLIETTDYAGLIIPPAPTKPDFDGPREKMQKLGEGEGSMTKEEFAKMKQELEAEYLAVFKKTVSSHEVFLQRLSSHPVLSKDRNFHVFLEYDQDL

In the case of CI-MPR (aa21–48) peptide, wild type, the negative logarithm of the Kd (pKd) is 4.89 and 4.66 and 4.72 in test [1]; 4.74 and 4.82 and 4.68 in [2]; 4.36 and 4.44 and 4.55 in test [3]; 4.66 and 4.77 and 4.82 in test [4]; 5.05 and 4.59 and 4.72 in test [5]; 4.74 and 4.96 and 4.60 in test [6].

As to CI-MPR peptide (aa21–48), the pKd in test [7] was less than 3.40; with SNX5^PX [8], 4.74; in the test with SNX5^PX [9], 4.74; with SNX6^PX, 4.44; with SNX32^PX, 4.74; in the test with SNX5^PX [10], 4.74.

For the origin of these results see publication PMC7082075.
